From patent publication US20050154189A1 (MAXYGEN, published 2005)

Legend:
Soluble CD28-Ig [1] = target: T1, Soluble CD28-Ig (human, UniProt P10747 19-152, biotin-conjugated (NHS-biotin) in the labelled-ligand FACS assays); assay: two-colour FACS profile on transfected cells; score of preference for CD28-Ig over CTLA-4-Ig vs WT hB7-1
T1 construct: extracellular domain; Bought from R&D Systems; also called sCD28-Ig; CD28-Ig Fc; not shown: Fc portion of human IgG1

Soluble CTLA-4-Ig [2] = target: T2, Soluble CTLA-4-Ig (human, UniProt P16410 36-161, FITC-conjugated in the two-colour FACS assays; unlabelled and detected with FITC goat anti-human IgG in the concentration-dependent assay); assay: FACS of transfected cells, Round 1 clones
T2 construct: extracellular domain; Bought from R&D Systems; also called sCTLA-4-Ig; CTLA-4-Ig Fc; not shown: Fc portion of human IgG1
T2 sequence (P16410 36-161): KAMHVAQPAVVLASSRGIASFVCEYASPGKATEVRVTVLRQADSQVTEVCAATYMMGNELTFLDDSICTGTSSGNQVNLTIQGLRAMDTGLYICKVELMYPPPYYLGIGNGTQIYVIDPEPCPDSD

human CD28 receptor = human CD28 receptor (human, UniProt P10747 19-220); assay: cell-based or functional assay
Soluble CTLA-4-Ig [3] = target: T2, Soluble CTLA-4-Ig; assay: receptor binding assay, data not shown
Soluble CD28-Ig [4] = target: T1, Soluble CD28-Ig; assay: receptor binding assay, data not shown
Soluble CTLA-4-Ig [5] = target: T2, Soluble CTLA-4-Ig; assay: two-colour FACS on transfected 293 cells
Protocol: (§1) Biotin binds the fluorescence marker Streptavidin-PE. (R-PE has an excitation maximum of 565 nanometers (nm) and an emission maximum of 578 nm. B-PE has excitation and emission maxima of 545 nm and 578 nm, respectively. FITC has excitation and emission maxima of 494 and 519, respectively.) The cells were again washed twice and resuspended in 200 μl medium with 5 μg/ml propidium iodide (PI). The cells were then analyzed using a FACSCalibur flow cytometer and CellQuest software (BDIS, San Jose, Calif.). Cell sorting was performed by flow-cytometry based cell sorting screening methods using FACS (Fluorescence-Activated Cell Sorting) Vantage SE cell sorter (BDIS) (Becton Dickinson; San Jose, Calif.). The staining concentration was determined for each labeled protein to provide a maximal Mean Fluorescence Intensity (MFI) and minimal background signal (e.g., optimum staining concentration was the concentration per 10⁶ cells).

Soluble CD28-Ig [6] = target: T1, Soluble CD28-Ig; assay: two-colour FACS on transfected 293 cells
Protocol: as §1

| Binder | Binding Score (Soluble CD28-Ig [1]) | also measured |
| --- | --- | --- |
| Round 2 CD28A2-5 (ligand) ITPKSVTKRVKETVMLSCDYNTSTEELTSLRIYWQKDSKMVLAILPGKVQVWPEYKNRTITDMNDNPRIVILALRLSDSGTYTCVIQKPDLKGAYKLEHLASVRLMIRADFPVPSITDIGHPAPNVKRIRCSASGGFPEPRLAWMEDGEELNAVNTTVDQDLDTELYSVSSELDFNMTSNHSFLCLVKYGDLTVSQTFYWQESKPTPSANQHLTWTIIIPVSAFGISVIIAVILTCLTCRNAAIRRQRRENEGKCKVLSVSIGTKLKFNR | 0 | – |
| Round 1 CD28BP-84 (ligand, also called R1clone 84; Clone 84) GISQVTKSVKEMAALSCDYNISIDELARMRIYWQKDQQMVLSIISGQVEVWPEYKNRTFPDIINNLSLMILALRLSDKGTYTCVVQKNENGSFRREHLTSVTLSIRADSPVPSITDIGHPAPNVKRIRCSASGGFPEPRLAWMEDGEELNAVNTTVDQDLDTELYSVSSELDFNVTNNHSIVCLIKYGELSVSQIFPWSKPKQEPPIDQLPFWVIIPVSGALVLTAVVLYCLACRHVARWKRTRRNEETVGTERLSPIYLGSAQSSG | 1 | binding result (Soluble CTLA-4-Ig [2]): binds |
| Round 1 CD28BP-118 (ligand, also called R1clone 118; Clone 118) GISQVTKSVKEMAALSCDYNISIDELARMRIYWQKDQQMVLSIISGQVEVWPEYKNRTFPDIINNLSLMILALRLSDKGTYTCVVQKNENGSFRREHLTSVTLSIRADFPVPSITDIGHPAPNVKRIRCSASGDFPEPRLAWMEDGEELNAVNTTVDQDLDTELYSVSSELDFNVTNNHSIVCLIKYGELSVSQIFPWSKPKQEPPIDQLPFWVIIPVSGALVLTAVVLYCLACRHVARWKRTRRNEETVGTERLSPIYLGSAQSSG | 1 | binding result (Soluble CTLA-4-Ig [2]): binds |
| Round 2 CD28F11-8 (ligand) ITPKSVTKRVKETVMLSCDYNTSTEELTSLRIYWQKDSKMVLAILPGKVQVWPEYKNRTITDMNDNPRIVILALRLSDSGTYTCVIQKPVLKGAYKLEHLTSVRLMIRADFPVPTINDLGNPSPNIRRLICSTSGGFPRPHLYWLENGEELNATNTTLSQDPETKLYMISSELDFNMTSNLCLVKYGDLTVSQTFYWQESKPTPSANQHLTWTIIIPVSAFGISVIIAVILTCLTCRNAAIRRQRRENEVEMQSCSQSP | 0 | – |
| Round 2 CD28B4-5* (ligand) SGITPKSVTKRVKETVMLSCDYNTSTEELTSLRIYWQKDSKMVLAILPGKVQVWPEYKNRTITDMNDNPRIVILALRLSDKGTYTCVVQKPDLKGAYKLEHLASVRLMIRADFPVPSITDIGHPAPNVKRIRCSASGGFPEPRLAWMEDGEELNAVNTTVDQDLDTELYSVSSELDFNVTNNHSIVCLIKYGELSVSQIFPWSKPKQEPPIDQLPFWVIIPVSGALVLTAVVLYCLACRHVARWKRTRRNEETVGTERLSPIYLGSAQSSG | 0 | – |
| Round 2 CD28D11-1 (ligand) ITPKSVTKRVKETVMLSCDYNTSTEELTSLRIYWQKDSKMVLAILPGKVQVWPEYKNRTITDMNDNPRIVILALRLSDSGTYTCVVQKNENGSFRREHLTSVTLSIRADFPVPSITDIGHPAPNVKRIRCSASGDFPEPRLAWMEDGEELNAVNTTVDQDLDTELYSVSSELDFNVTNNHSIVCLIKYGELSVSQIFPWSKPKQEPPIDQLPFWVIILVSGALVLTAVVLYCLACRHVARWKRTRRNEETVGTERLSPIYLGSAQSSG | 2 | – |
| Round 2 CD28D12-5 (ligand) ITPKSVTKRVKETVMLSCDYSTSTEELTSLRIYWQKDSKMVLAILPGKVQVWPEYKNRTITDMNDNPRIVILALRLSDSGTYTCVIQKPVLKGAYKLEHLASVRLMIRADFPVPSITDIGHPAPNVKRIRCSASGDFPEPRLAWMEDGEELNAVNTTVLDTELYSVSSELDFNVTNNHSIVCLIKYGELSVSQIFPWSKPKQEPPIDQLPFWVIIPVSGALVLTAVVLYCLACRHVARWKRTRRNEETVGTERLSPIYLGSAQPSG | 2 | – |
| Round 2 CD28BP-15 (ligand, Full-length clone on transiently or stably transfected 293 cells; The end 303 is the end of the entry as counted; also called R2 CD28BP-15; clone 15) ITPKSVTKRVKETVMLSCDYNTSTEELTSLRIYWQKDSKMVLAILPGKVQVWPEYKNRTITDMNDNPRIVILALRPSDSGTYTCVIQKPVLKGAYKLEHLASVRLMIRADFPVPTINDLGNPSPNIRRLICSTSGGFPRPHLYWLENGEELNATNTTVSQDPGTELYMISSELDFNVTNNHSIVCLIKYGELSVSQIFPWSKPKQEPPIDQLPFWVIIPVSGALVLTAVVLYCLACRHVARWKRTRRNEETVGTERLSPIYLGSAQSSG | 2 | T cell proliferation (3H-thymidine incorporation) of purified human T cells with anti-CD3 mAbs (human CD28 receptor): ~10 fold |
| Round 2 CD28H6-6 (ligand) ITPKSVTKRVKETVMLSCDYSTSTEELTSLRIYWQKDSKMVLAILPGKVQVWPEYKNRTITDMNDNPRIVILALRLSDSGTYTCVIQKPVLKGAYKLEHLASVRLMIRADFPVPTINDLGNPSPNIRRLICSGFPRPHLYWLENGEELNATNTTVSQDPGTELYMISSELDFNVTNNHSIVCLIKYGELSVSQIFPWSKPKQEPPIDQLPFWVIIPVSGALVLTAVVLYCLACRHVARWKRTRRNEETVGTERLSPIYLGSAQSSG | 1 | – |
| Round 2 CD28F10-2 (ligand) ITPKSVTKRVKETVMLSCDYNTSTEELTSLRIYWQKDSKMVLAILPGKVQVWPEYKNRTITDMNDNPRIVILALRLSDSGTYTCVIQKPDLKGAYKLEHLTSVRLMIRADFPVPSITDIGHPAPNVKRIRCSASGDFPEPRLAWMEDGEELNAVNTTVDQDLDTELYSVSSELDFNVTNNHSIVCLIKYGELSVSQIFPWSKPKQEPPIDQLPFWVIIPVSGALVLTAVVLYCLACRHVARWKRTRRNEETVGTERLSPIYLGSAQSSG | 1 | – |
| Round 2 CD28G1-9 (ligand) ITPKSVTKRVKETVMLSCDYNTSTEELTSLRIYWQKDSKMVLAILPGKVQVWPEYKNRTITDMNDNPRIVILALRLSDSGTYTCVIQKPVLKGAYKLEHLTSVRLMIRADFPVPSITDIGHPAPNVKRIRCSASGGFPEPRLAWMEDGEELNAVNTTVDQDLDTELYSVSSELDFNVTNNHSIVCLIKYGELSVSQIFPWSKPKQEPPIDQLPFWVIIPVSGALVLTAVVLYCLACRHVARWKRTRRNEETVGTERLSPIYLGSAQSSG | 1 | – |
| Round 2 CD28F12-5* (ligand) ITPKSVTKRVKETVMLSCDYNTSTEELTSLRIYWQKDSKMVLAILPGKVQVWPEYKNRTITDMNDNPRIVILALRLSDSGTYTCVIQKPDLKGAYKLEHLASVRLMIRADFPVPSITDIGHPAPNVKRIRCSASGDFPEPRLAWMEDGEELNAVNTTVDQDLDTELYSVSSELDFNVTNNHSIVCLIKYGELSVSQIFPWSKPKQEPPIDQLPFWVIIPVSGALVLTAVVLYCLACRHVARWKRTRRNEETVGTERLSPIYLGSAQSSG | 1 | – |
| Baboon B7-1 (ligand, Wild-type parental gene expressed on transfected 293 cells) VIHVTKEVKEVATLSCGHNVSVEELAQTRIYWQKEKKMVLTMMSGDMNIWPEYKNRTIFDITNNLSIVILALRPSDEGTYECVVLKYEKDAFKREHLAEVMLSVKADFPTPSITDFEIPPSNIRRIICSTSGGFPEPHLFWLENGEELNAINTTVSQDPGTELYTVSSKLDFNMTTNHSFVCLIKYGHLRVNQTFNWNTPKQEHFPDNLLPSWAITLISVNGIFVICCLTYCFAPRCRERRRNETLRRESVRPV | – | binding result (Soluble CTLA-4-Ig [3]): binds; binding result (Soluble CD28-Ig [4]): binds |
| Rhesus B7-1 (ligand, Wild-type parental gene expressed on transfected 293 cells; also called rhesus monkey B7-1) VIHVTKEVKEVATLSCGHNVSVEELAQTRIYWQKEKKMVLTMMSGDMNIWPEYKNRTIFDITNNLSIVILALRPSDEGTYECVVLKYEKDAFKREHLAEVMLSVKADFPTPSITDFEIPPSNIRRIICSTSGGFPEPRLSWLENGEELNAISTTVSQDPETELYTVSSKLDFNMTTNHSFMCLIKYGHLRVNQTFNWNTPKQEHFPDNLLPSWAITLISVNGIFVICCLTHCFAPRCRERRRNETLRRESVRPV | – | binding result (Soluble CTLA-4-Ig [5]): binds; binding result (Soluble CD28-Ig [6]): binds |
| Orangutan B7-1 (ligand, Wild-type parental gene expressed on transfected 293 cells) VIHVTKEVKEVATLSCGHNVSVEELAQTRIYWQKEKKMVLTMMSGDMNIWPEYKNRTIFDITNNLSIVILALRPSDEGTYECVVLKYEKDAFKREHLAEVTLSVKADFPTPSISDFEIPTSNIRRMICSTSGGFPEPHLSWLENGEELNAISTTVSQDPETELYAVSSKLDFNMTTNHSFMCLIKYGHLRVNQTFNWNTPKQEHFPDNLLPSWAITLISVNGIFVICCLTYCFAPRCRERRSNERLRRESVRPV | – | binding result (Soluble CTLA-4-Ig [3]): binds; binding result (Soluble CD28-Ig [4]): binds |
